Measured values published in PMC3089569 (The Journal of Biological Chemistry, 2011).

Target: N-terminal histidine-tagged full-length mouse eIF4AI (mouse, UniProt P60843 1-406)
Experiment: SPR

N-terminal histidine-tagged full-length mouse eIF4AI, sequence (P60843 whole entry): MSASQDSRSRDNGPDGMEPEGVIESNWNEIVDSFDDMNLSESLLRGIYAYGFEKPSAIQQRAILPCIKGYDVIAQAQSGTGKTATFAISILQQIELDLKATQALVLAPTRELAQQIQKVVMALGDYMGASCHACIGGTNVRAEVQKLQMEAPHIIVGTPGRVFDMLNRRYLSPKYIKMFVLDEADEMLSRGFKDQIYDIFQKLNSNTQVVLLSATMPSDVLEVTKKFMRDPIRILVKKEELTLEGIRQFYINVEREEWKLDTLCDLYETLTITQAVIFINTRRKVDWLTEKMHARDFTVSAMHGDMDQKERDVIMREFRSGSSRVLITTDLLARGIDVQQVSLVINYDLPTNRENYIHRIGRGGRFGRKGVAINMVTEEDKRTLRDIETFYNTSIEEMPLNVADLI

- Kd: 167 nM
B1: GST-MA-3M-C fusion protein (tandem MA-3 region of mouse Pdcd4, residues 157-449) (domain or fragment, UniProt Q61823 157-449, looked up)
chain: LPLDETAFEKTLTPIIQEYFEHGDTNEVAEMLRDLNLGEMKSGVPVLAVSLALEGKASHREMTSKLLSDLCGTVMSTNDVEKSFDKLLKDLPELALDTPRAPQLVGQFIARAVGDGILCNTYIDSYKGTVDCVQARAALDKATVLLSMSKGGKRKDSVWGSGGGQQPVNHLVKEIDMLLKEYLLSGDISEAEHCLKELEVPHFHHELVYEAIVMVLESTGESAFKMILDLLKSLWKSSTITIDQMKRGYERIYNEIPDINLDVPHSYSVLERFVEECFQAGIISKQLRDLCPS
